Results on one protein are retold here after PMC3217041 (Steroids, 2011).

The data set concerns the molecule itself. Description: crystal structure.

B1: Human placental aromatase (cytochrome P450 aromatase, CYP19A1) (enzyme, UniProt P11511 1-503, looked up)
chain: MVLEMLNPIHYNITSIVPEAMPAATMPVLLLTGLFLLVWNYEGTSSIPGPGYCMGIGPLISHGRFLWMGIGSACNYYNRVYGEFMRVWISGEETLIISKSSSMFHIMKHNHYSSRFGSKLGLQCIGMHEKGIIFNNNPELWKTTRPFFMKALSGPGLVRMVTVCAESLKTHLDRLEEVTNESGYVDVLTLLRRVMLDTSNTLFLRIPLDESAIVVKIQGYFDAWQALLIKPDIFFKISWLYKKYEKSVKDLKDAIEVLIAEKRRRISTEEKLEECMDFATELILAEKRGDLTRENVNQCILEMLIAAPDTMSVSLFFMLFLIAKHPNVEEAIIKEIQTVIGERDIKIDDIQKLKVMENFIYESMRYQPVVDLVMRKALEDDVIDGYPVKKGTNIILNIGRMHRLEFFPKPNEFTLENFAKNVPYRYFQPFGFGPRGCAGKYIAMVMMKAILVTLLRRFHVKTLQGQCVESIQKIHDLSLHPDETKNMLEMIFTPRNSDRCLEH
Turning to B1, the binding result is “binds”.
